From paper PMC5171221
Read-outs that look alike come from different tables or passages of the source.

B1: flavin-dsDNA 100 bp surface tether (dsDNA)
DNA 1: GTCACGATGGCCCAGTAGTT
DNA 2: AACTACTGGGCCATCGTGAC
DNA 3: CGCCGCCGCCGACGACGCCATCGACCGCGCGGAGGACACCCTCGACAACGTGGTGTGGGCGTCACGATGGCCCAGTAGTT
DNA 4: GCCCACACCACGTTGTCGAGGGTGTCCTCCGCGCGGTCGATGGCGTCGTCGGCGGCGGCGAACTACTGGGCCATCGTGAC
modifications: strand 1 5' flavin (CofC4); strand 2 5' (dithiane)3, on gold
B2: flavin-dsLNA 7 bp surface tether (XNA)
?: GGGCGAC
DNA: GTCGCCC
modifications: LNA; strand 1 5' flavin (CofC4); strand 2 5' 1,2-dithiane, on gold

Experiments:
[1] = target: T1, apododecin DtE (triple E variant) (Halobacterium salinarum, UniProt B0R5M0 1-68, E45A;del50-50;del51-51); experiment: QCM-D
T1 sequence: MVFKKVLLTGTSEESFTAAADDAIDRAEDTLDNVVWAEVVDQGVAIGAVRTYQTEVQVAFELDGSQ

[2] = target: T1, apododecin DtE (triple E variant); experiment: QCM-D; remark: listed apart in the source

Binder	binding result [1]	binding result [2]
B1	binds	
B2		binds
